Data reported in paper PMC9425028, “The complex formation of MASP-3 with pattern recognition molecules of the lectin complement pathway retains MASP-3 in the circulation” (Frontiers in Immunology, 2022).

Tests used:
Assay in all cases: ELISA; sandwich ELISA: 10 ug each of rmMASP-3-PA and rmMASP-3-ALFA mixed, dialysed against TBS/10 mM EDTA 24 h at 4°C, then against TBS/5 mM CaCl2 24 h at 4°C; 0.14 uM of each, serially diluted in 20% Blocking One in TBS/Ca; captured on anti-PA tag antibody, 30 min room temperature; detected with HRP-conjugated anti-ALFA nanobody
Settings in all cases: both partners purified
[1] = target: T1, wild-type recombinant mouse MASP-3 fused with PA-tag (WT rmMASP-3-PA) (mouse, UniProt P98064-2 25-733)
T1 construct: Secreted from CHO cells, purified as a proenzyme of about 110 kDa; in the circulation partly cleaved into H-chain and L-chain (active form); also called WT-PA; source: CHO cells, transfected, culture supernatant, purified (anti-PA tag antibody beads); not shown: PA tag (human podoplanin dodecapeptide), C-terminal, kept
T1 sequence (looked up): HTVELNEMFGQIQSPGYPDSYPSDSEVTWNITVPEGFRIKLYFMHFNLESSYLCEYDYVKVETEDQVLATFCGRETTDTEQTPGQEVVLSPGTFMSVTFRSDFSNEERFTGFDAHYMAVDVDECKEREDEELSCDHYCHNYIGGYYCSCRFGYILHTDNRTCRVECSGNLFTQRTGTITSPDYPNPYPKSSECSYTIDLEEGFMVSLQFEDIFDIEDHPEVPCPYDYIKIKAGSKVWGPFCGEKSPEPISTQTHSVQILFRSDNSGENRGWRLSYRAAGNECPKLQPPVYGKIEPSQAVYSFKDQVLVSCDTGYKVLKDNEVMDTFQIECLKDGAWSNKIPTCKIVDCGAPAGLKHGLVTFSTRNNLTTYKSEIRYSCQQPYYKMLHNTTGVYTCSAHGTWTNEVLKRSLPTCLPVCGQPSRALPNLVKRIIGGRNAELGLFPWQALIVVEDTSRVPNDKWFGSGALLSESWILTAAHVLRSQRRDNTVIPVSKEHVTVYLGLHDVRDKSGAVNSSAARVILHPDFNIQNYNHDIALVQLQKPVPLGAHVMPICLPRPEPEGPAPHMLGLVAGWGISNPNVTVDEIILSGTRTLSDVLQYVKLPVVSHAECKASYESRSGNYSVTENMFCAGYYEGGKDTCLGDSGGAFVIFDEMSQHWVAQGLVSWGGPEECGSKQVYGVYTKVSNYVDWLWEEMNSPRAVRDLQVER

[2] = target: T2, Y225A mutant recombinant mouse MASP-3 fused with PA-tag (mouse, UniProt P98064-2 25-733, Y225A)
T2 construct: Made from the pCAG-Bsd PA tag-C/WT rmMASP-3 plasmid by site-directed mutagenesis; also called Y225A rmMASP-3-PA; mutant rmMASP-3-PA; source: CHO cells, transfected, culture supernatant, purified (anti-PA tag antibody beads); not shown: PA tag (human podoplanin dodecapeptide), C-terminal, kept
T2 sequence (looked up): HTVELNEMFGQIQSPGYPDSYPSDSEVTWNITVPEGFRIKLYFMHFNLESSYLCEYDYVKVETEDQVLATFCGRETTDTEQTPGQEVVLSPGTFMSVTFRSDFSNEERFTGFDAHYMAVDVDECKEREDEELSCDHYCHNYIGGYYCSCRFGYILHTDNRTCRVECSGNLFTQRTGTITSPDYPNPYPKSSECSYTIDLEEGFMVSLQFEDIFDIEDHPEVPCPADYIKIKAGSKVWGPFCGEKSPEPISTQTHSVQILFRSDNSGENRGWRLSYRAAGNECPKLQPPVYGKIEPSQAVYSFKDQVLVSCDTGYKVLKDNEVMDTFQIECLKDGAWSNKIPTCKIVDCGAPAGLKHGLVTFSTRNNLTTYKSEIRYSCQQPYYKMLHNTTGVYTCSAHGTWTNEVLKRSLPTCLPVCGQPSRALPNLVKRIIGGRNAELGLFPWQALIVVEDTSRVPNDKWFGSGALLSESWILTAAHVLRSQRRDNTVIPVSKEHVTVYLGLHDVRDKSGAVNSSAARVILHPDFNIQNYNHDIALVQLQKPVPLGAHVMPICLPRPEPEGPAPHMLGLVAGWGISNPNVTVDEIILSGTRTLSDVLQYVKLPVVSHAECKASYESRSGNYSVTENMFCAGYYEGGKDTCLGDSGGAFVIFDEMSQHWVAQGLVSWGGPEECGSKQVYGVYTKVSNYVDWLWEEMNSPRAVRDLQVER

[3] = target: T3, H218A mutant recombinant mouse MASP-3 fused with PA-tag (mouse, UniProt P98064-2 25-733, H218A)
T3 construct: Made from the pCAG-Bsd PA tag-C/WT rmMASP-3 plasmid by site-directed mutagenesis; also called H218A rmMASP-3-PA; mutant rmMASP-3-PA; source: CHO cells, transfected, culture supernatant, purified (anti-PA tag antibody beads); not shown: PA tag (human podoplanin dodecapeptide), C-terminal, kept
T3 sequence (looked up): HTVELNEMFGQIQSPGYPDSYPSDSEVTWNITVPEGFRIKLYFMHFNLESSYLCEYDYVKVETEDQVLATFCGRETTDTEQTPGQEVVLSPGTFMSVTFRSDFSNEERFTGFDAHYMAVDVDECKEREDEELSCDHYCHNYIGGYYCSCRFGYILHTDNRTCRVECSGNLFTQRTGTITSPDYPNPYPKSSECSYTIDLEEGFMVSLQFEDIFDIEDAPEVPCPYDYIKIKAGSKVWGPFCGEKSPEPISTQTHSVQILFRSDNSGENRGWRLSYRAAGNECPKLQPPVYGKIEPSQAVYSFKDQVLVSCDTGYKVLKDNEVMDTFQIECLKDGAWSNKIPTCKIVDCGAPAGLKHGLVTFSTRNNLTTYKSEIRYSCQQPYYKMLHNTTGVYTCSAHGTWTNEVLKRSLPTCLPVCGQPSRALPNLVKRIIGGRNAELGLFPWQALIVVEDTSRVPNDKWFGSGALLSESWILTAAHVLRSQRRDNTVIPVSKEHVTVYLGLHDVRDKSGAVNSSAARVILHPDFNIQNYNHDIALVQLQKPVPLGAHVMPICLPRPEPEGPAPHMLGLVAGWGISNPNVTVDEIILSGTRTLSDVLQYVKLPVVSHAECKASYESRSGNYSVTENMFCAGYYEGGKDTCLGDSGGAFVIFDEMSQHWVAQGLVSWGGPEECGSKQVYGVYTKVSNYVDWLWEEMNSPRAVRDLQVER

[4] = target: T4, E49A mutant recombinant mouse MASP-3 fused with PA-tag (mouse, UniProt P98064-2 25-733, E49A)
T4 construct: Made from the pCAG-Bsd PA tag-C/WT rmMASP-3 plasmid by site-directed mutagenesis; also called E49A rmMASP-3-PA; mutant rmMASP-3-PA; source: CHO cells, transfected, culture supernatant, purified (anti-PA tag antibody beads); not shown: PA tag (human podoplanin dodecapeptide), C-terminal, kept
T4 sequence (looked up): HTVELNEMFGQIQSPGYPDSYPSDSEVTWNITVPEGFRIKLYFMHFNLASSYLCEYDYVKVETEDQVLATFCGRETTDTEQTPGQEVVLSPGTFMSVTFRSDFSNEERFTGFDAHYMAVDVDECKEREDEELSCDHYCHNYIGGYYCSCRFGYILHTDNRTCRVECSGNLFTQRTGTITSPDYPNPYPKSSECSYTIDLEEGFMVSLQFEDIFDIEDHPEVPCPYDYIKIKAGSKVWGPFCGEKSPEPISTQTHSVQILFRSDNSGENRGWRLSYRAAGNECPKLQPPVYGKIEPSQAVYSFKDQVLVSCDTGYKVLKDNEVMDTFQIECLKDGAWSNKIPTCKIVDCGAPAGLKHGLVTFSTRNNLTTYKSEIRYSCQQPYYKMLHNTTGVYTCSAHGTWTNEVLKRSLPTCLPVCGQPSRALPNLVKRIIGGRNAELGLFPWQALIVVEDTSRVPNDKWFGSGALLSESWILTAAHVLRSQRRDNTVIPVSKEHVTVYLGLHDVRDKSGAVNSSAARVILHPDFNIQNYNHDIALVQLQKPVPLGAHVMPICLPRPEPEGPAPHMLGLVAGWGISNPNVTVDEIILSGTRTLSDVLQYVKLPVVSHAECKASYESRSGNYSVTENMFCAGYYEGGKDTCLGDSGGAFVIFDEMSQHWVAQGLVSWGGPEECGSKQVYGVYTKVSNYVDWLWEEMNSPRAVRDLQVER

- binding result [1]: binds
- binding result [2]: binds
- binding result [3]: binds
- binding result [4]: binds
B1: wild-type recombinant mouse MASP-3 with ALFA tag (WT rmMASP-3-ALFA) (enzyme, UniProt P98064-2 25-733, looked up)
chain: HTVELNEMFGQIQSPGYPDSYPSDSEVTWNITVPEGFRIKLYFMHFNLESSYLCEYDYVKVETEDQVLATFCGRETTDTEQTPGQEVVLSPGTFMSVTFRSDFSNEERFTGFDAHYMAVDVDECKEREDEELSCDHYCHNYIGGYYCSCRFGYILHTDNRTCRVECSGNLFTQRTGTITSPDYPNPYPKSSECSYTIDLEEGFMVSLQFEDIFDIEDHPEVPCPYDYIKIKAGSKVWGPFCGEKSPEPISTQTHSVQILFRSDNSGENRGWRLSYRAAGNECPKLQPPVYGKIEPSQAVYSFKDQVLVSCDTGYKVLKDNEVMDTFQIECLKDGAWSNKIPTCKIVDCGAPAGLKHGLVTFSTRNNLTTYKSEIRYSCQQPYYKMLHNTTGVYTCSAHGTWTNEVLKRSLPTCLPVCGQPSRALPNLVKRIIGGRNAELGLFPWQALIVVEDTSRVPNDKWFGSGALLSESWILTAAHVLRSQRRDNTVIPVSKEHVTVYLGLHDVRDKSGAVNSSAARVILHPDFNIQNYNHDIALVQLQKPVPLGAHVMPICLPRPEPEGPAPHMLGLVAGWGISNPNVTVDEIILSGTRTLSDVLQYVKLPVVSHAECKASYESRSGNYSVTENMFCAGYYEGGKDTCLGDSGGAFVIFDEMSQHWVAQGLVSWGGPEECGSKQVYGVYTKVSNYVDWLWEEMNSPRAVRDLQVER
notes: The fragment was put into the pCAG-Bsd PA tag-C vector; also called WT-ALFA; source: CHO cells, transfected, culture supernatant, purified (ALFA Selector ST); not shown: ALFA tag, C-terminal, kept
